Results as given in patent US20240383999A1 (University of Texas, published 2024).
Changes are numbered by the printed parent chain.

T1: Human recombinant CD5L protein (Sino Biological, Catalog Number 10791-H08H) (human, UniProt O43866 20-347)
T1 construct: Bought protein; also called human CD5L; CD5L-His; not shown: 6xHIS-tag
T1 sequence (looked up): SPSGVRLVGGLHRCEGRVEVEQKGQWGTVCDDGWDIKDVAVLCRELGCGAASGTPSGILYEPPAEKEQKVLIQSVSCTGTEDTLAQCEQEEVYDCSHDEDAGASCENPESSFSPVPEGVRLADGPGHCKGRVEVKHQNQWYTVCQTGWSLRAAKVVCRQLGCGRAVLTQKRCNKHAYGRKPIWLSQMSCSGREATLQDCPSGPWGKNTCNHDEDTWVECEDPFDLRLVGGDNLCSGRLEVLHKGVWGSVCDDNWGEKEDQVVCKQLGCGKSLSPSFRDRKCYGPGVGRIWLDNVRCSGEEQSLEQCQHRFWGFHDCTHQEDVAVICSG

B1: R-21 (antibody, V domains shown)
VH: QSVEESGGRLVTPGTPLTLTCTVSGIDLSSYAINWVRQAPGEGLEWIGMISSSDNTYYANWAKGRFTISRDSTTVDLKITSPTTEDTATYFCARFYAGRSYSLWGQGTLVTISS
VL: ELDLTQTPASVSAAVGGTVTISCQSSESVYKSNYLSWYQQKAGQPPKLLIYAAATLASGVPSRFKGSGSGTQFTLTISGVQCDDAATYYCQGTYYSSGWYNAFGGGTEVVVK
B2: R-23 (antibody, V domains shown)
VH: QSVEESGGRLVMPGGSLTLTCTVSGIDLSSNTMGWFRQAPGKGLEWIGIMRGGGSTYYATWAKGRFTISKTSTTVDLKLTSPTTEDTATYFCARAFPGYNSFFNFWGQGTLVTISS
VL: ELDLTQTPASVSEPVGGTVTIKCQASHNINSALAWYQQKPGQPPKLLIYKASTLASGVPPRFKGSGSGTEFTLTISDLECADAATYYCQRHYFDGASADIAFGGGTEVVVK
B3: R-5 (antibody, V domains shown)
VH: QSVKESGGRLVTPGTPLTLTCTVSGFSLSSYAMSWVRQAPGKGLEWIGVIDVTGRTYYASWAKGRFTISKTSTTVDLKITSPTTEDTATYFCGRDSYLDYGDPNGLDPWGPGTLVTISS
VL: ELVMTQTPASVEAAVGGTVTIKCQASQSIGSNLAWYQQKPGQPPKLLIYTASNLAPGVSSRFKGSRSGTESTLIISDLECADAATYYCQCTYYGTSYMELGAFGGGTELEIK
B4: R-36 (antibody, V domains shown)
VH: QSVKESGGGLFQPGGSLALTCKASGFSLSKNYVMCWVRQAPGKGLEWIACIYAGDGNTYYVSWAKGRFTISKTSSTTVTLQMTSLTAADTATYFCARWDYIGNNNLWGPGTLVTISS
VL: ELVLTQTPASVEAAVGGTVTIKCQASQTISSYLAWYQQKPGQPPKLLIYRASTLASGVPSRFKGSGSGTQFTLTISDLECADGATYYCQCPYYGSSHVGAFGGGTEVVVK
B5: R-11 (antibody, V domains shown)
VH: QSVKESGGDLVKPGASLTLTCTASGFDFSSNTMCWVRQAPGKGLEYIGYISYSGATHYASWAKGRFTISKTLSTTVTLQMTSLTDADTATYFCARDRGYVDGSYYGDFNLWGPGTLVTVSS
VL: ELVMTQTPSSASEPVGGTVTIKCQASQSIASRLAWFQQKPGQPPKLLIYRASTLESGVSSRFKGSGFGTEFTLTISDLECADAATYYCQSYYGSGYGKTFGGGTDVVVK
B6: R-18 (antibody, V domains shown)
VH: QSVKESGGRLVTPGTPLTLTCTVSGFSLSNYAMSWVRQAPGKGLEWIGIIVTSGSTYYASWAKGRFTISKTSTTVDLKMTSLTAADTATYFCARHAYSIGSSLWGQGTLVTISS
VL: ELDLTQTPPSASEPVGGTVTIKCQASESISVRLAWYQQKPGQPPKLLIYKASNLPSGVPSRFKGSGSGTEFTLTISDLECDDAATYYCRNYYDISNNGAGFGGGTEVEIK
B7: R-51 (antibody, V domains shown)
VH: QSVKESGGRLVTPGTPLTLTCTVSTIDVSKYAVIWVRQAPGKGLEYIGIISSSGSTYYASWAKGRFTISKTSSTTVDLKMTSPTAEDTATYFCARGGNGVAFKLWGQGTLVTISS
VL: ELDLTQTPASVEAAVGGTVTINCQASQSIYSSLAWYQQKPGQPPKLLIYETSKVESGVPSRFSGSGSGTQFTLTISDLECADAATYYCQSHDYISSSGMPFGGGTELEIL
B8: R-6 (antibody, V domains shown)
VH: B7 VH with V3L, K4E
VL: ELDMTQTPASVEAAVGGTVTINCQASESINDRLAWYQLKPGQPPKLLIYETSQVESGVPSRFSGSGSGTQFTLTISDLECADAATYYCQSHDYISSSGMPFGGGTEVVVK
B9: R-29 (antibody, V domains shown)
VH: QSVEESGGRLVTPGTPLTLTCTVSGFSLSSYAMNWVRQAPGKGLEWIGLIYASGTTHYASWVNGRFTISKTSTTVTLKMTSLTAADTATYFCARDSYSTGNLWGQGTLVTISS
VL: ELVLTQTPASVSEPVGGTVTIKCQASQSIYSSLVWYQQKPGQPPKLLIYGASNLESGVPSRFKGSGSGTEYTLTISGVQCADAATYYCQCSGYNSRVFGGGTEVEIK
B10: R-4 (antibody, V domains shown)
VH: QSVEESGGRLVTPGTPLTLTCTASGFSLSSYYMTWVRQAPGKGLEYIGIISDRGSTYYASWAKGRFTIAKTSSTTVDLKLTSLTTEDTATYFCYRGVDGSGGYAAGDLWGQGTLVTISS
VL: ELVLTQTPASVEAAVGGTVTIKCQASEDIYSYFAWYQQKPGQRPRLLIYEASKVASGVPSRFKGGGSGTQFTLTISDLECADAATYYCQNNFYMIGDDYGGTFGGGTEVEIK
B11: R-9 (antibody, V domains shown)
VH: QSVKESGGRLVTPGTPLTLTCTVSGFYLSTHGMTWVRQAPGKGLEYIGVIVTSGNTYYATWATGRFTISKTSTTVDLKITSPTTEDTATYFCARPGYKSVPLWGQGTLVTISS
VL: ELDLTQTPASVSAAVGGTVTINCQASEDIYSGLTWYQQKPGQPPKLLIYRASTLASGVPPRFKGSGSGTEFTLTISDLECDDAATYYCQNNYGSSSNNYVFAFGGGTEVEIK
B12: H-119 (antibody, V domains shown)
VH: EVQLVQSGAEVKKPGESLKISCKGSGYSFTSYWIGWVRQMPGKGLEWMGIIYPGDSDTRYSPSFQGQVTISADKSISTAYLQWSSLKASDTAMYYCARGLAASTRFDPWGQGTLVTVSS
VL: DVQMTQSPSSLSASVGDRVTITCRPSQSINNYLNWYQQKPGEAPKLLIYAASNLQSGVPSRFSGSGSGTDFTLTISSLQPEDFGTYYCQQSYSIPLTFGGGTTVEIK
B13: R-49 (antibody, V domains shown)
VH: QSVKESGGRLVTPGTPLTLTCTVSGFSLSINAINWVRQAPGKGLEWIGIITNIGNTYYASWAKGRFTISRTSTTVDLTMTSLTTEDTATYFCARNSYFDPWGPGTLVTISS
VL: ELVLTQTPSPVSAAVGGTVSISCQASQSVDSNNYCSWYQQKPGQPPKLLIHKASKLASGVPSRFKGSGSGTQFTLTINDLECDDAATYYCAGGLGDNIYAFGGGTEVEIN
B14: R-1 (antibody, V domains shown)
VH: QSVEESGGRLVTPGTPLTLTCTVSGIDLSNYAINWVRQAPGKGLEWIGMISSGDVTYYASWAKGRFIISRTSSTTVDLKMTSPTIEDTATYFCARFFAGRSESLWGQGTLVTVSS
VL: ELDLTQTPSSVSAAVGGTVTINCQSSQSVNKNNYLSWYQQKPGQPPKLLIYSASALASGVSSRFSGSGSGTEFTLTISDVQCDDAATYYCQGTYYDSGWYNAFGGGTEVEIK
B15: R-10 (antibody, V domains shown)
VH: QSVKESGGRLVTPGTPLTLTCTLSGIDLSSYAMGWVRQAPGKGLEYIGIIGASGTTYYANWAKGRFTISRTSTTVDLKITSPTTEDTATYFCARAGYAGTGYPTRLDLWGQGTLVTISS
VL: ELDMTQTPASVEAAVGGTVTIKCQASQSISSSYLAWYQQKPGQPPKLLIYKASTLESGVPSRFSGSGSGTEFTLTISGVQCDDAATYYCLGGYFSFSNYDYGFGGGTEVEIK
B16: R-39 (antibody, V domains shown)
VH: QSLEESGGRLVTPGGSLTLTCTVSGIDLSSYTMGWVRQAPGKGLEWIGVIAINGGTVYASWAKGRFTISKTSTTVDLKMTSPTPEDTATYFCARGAGKTWSSFNLWGQGTLVTISS
VL: ELVLTQTPASVSEPVGGTVTIKCQASQSIGSNLAWYQQKPGQPPKLLIYRASTLESGVPSRFSGSGSGTEFTLTISDLECADAATYYCQSYYGSSTNAFGGGTEVVVK
B17: CD5L-35Hu-1 (antibody, V domains shown)
VH: QVQLVESGGGVVQPGRSLRLSCAASGIDLSDYYMTWVRQAPGKGLEYIGIIYASGNAYFASWAKGRFTISRDSSTNTLFLQMNSLRAEDTAVYYCARNIGGSSNLWGQGTLVTVSS
VL: AIQLTQSPSSLSASVGDRVTITCQASERIYNNLAWYQQKPGKAPKLLFYSASTLASGVPSRFSGSGSGTDFTLTISSLQPEDFATYYCQCTGYGTTYGLVFGGGTKVEIK
notes: also called humanized CD5L-35Hu mAb (CD5L-35Hu-H1 + CD5L-35Hu-K1)
B18: CD5L-35Hu-3 (antibody, V domains shown)
VH: B17 VH with S73N, L78V
VL: B17 VL
notes: also called humanized CD5L-35Hu mAb (CD5L-35Hu-H2 + CD5L-35Hu-K1)
B19: CD5L-35Hu-2 (antibody, V domains shown)
VH: B17 VH
VL: B17 VL with A1E, I2L, S7T, T22K
notes: also called humanized CD5L-35Hu mAb (CD5L-35Hu-H1 + CD5L-35Hu-K2)
B20: CD5L-35Hu-4 (antibody, V domains shown)
VH: B17 VH with S73N, L78V
VL: B17 VL with A1E, I2L, S7T, T22K
notes: also called humanized CD5L-35Hu mAb (CD5L-35Hu-H2 + CD5L-35Hu-K2)

Target: T1, Human recombinant CD5L protein (Sino …)
Assay: titration ELISA, human CD5L coated on plate
Protocol: FIG. 11. […] Bound antibody was detected using a secondary antibody against rabbit IgG conjugated with HRP and TMB substrate for detection of A450 nm. EC₅₀ was estimated using GraphPad software by applying a 4-parameter fitting to calculate binding affinity of the antibodies.
Binding constants (EC₅₀) of a panel of monoclonal antibodies were estimated by titration ELISA, and the data were analyzed using the 4-parameter curve fitting with GraphPad Prism program (Table 6).

| EC50 [mg/L] | Binder |
| --- | --- |
| 0.21 | B1 |
| 0.14 | B2 |
| 0.148 | B3 |
| 0.278 | B4 |
| 0.0474 | B5 |
| 0.19 | B6 |
| 0.0144 | B7 |
| 0.187 | B8 |
| 0.161 | B9 |
| 0.0713 | B10 |
| 0.136 | B11 |
| 0.0068 | B12 |
| 0.0077 | B13 |
| 0.0598 | B14 |
| 0.307 | B15 |
| 0.246 | B16 |

Target: T1, Human recombinant CD5L protein (Sino …)
Assay: BLI (Octet RED96), antibody on Protein A biosensors, CD5L-His in solution, global fit
Protocol: Kinetic binding parameters (KD, kon, and koff) in (Table 11) were determined using Octet RED96 instrument and binding curves are shown in FIG. 17. […] KDs are calculated using Octet software with global fitting model.

| Kd [pM] | koff [s⁻¹] | kon [M⁻¹ s⁻¹] | Binder |
| --- | --- | --- | --- |
| < 1 | < 1e-07 | 146000 | B17 |
| < 1 | < 1e-07 | 119000 | B18 |
| < 1 | < 1e-07 | 125000 | B19 |
| < 1 | < 1e-07 | 106000 | B20 |

Target: T1, Human recombinant CD5L protein (Sino …)
Assay: BLI (Octet RED96), antibody on protein A biosensors, CD5L 0.1-200 nM in solution, 1:1 fit
Protocol: All experiments were performed with shaking at 1,000 rpm. Background wavelength shifts were measured from reference biosensors that were loaded only with antibody. ForteBio's data analysis software was used to fit the data to a 1:1 binding model to extract an association rate and dissociation rate.

| Kd [pM] | Binder |
| --- | --- |
| 1560 | B6 |
